# According to patent publication US20240034757A1 (OXFORD UNIVERSITY INNOVATION, published 2024):
# T1: CCL8_HUMAN (human, UniProt P80075 24-99)
# T1 sequence (looked up): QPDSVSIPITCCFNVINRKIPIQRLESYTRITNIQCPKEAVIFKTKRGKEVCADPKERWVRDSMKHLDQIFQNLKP
# T2: CXCL10_HUMAN (human, UniProt P02778 22-98)
# T2 sequence: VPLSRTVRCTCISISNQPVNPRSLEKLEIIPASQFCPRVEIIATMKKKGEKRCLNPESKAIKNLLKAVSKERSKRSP
# T3: CXCL7_HUMAN (human, UniProt P02775 59-128)
# T3 sequence: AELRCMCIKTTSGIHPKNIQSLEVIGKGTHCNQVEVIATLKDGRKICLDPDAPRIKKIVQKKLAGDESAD
# T4: CXCL14_HUMAN (human, UniProt O95715 35-111)
# T4 sequence: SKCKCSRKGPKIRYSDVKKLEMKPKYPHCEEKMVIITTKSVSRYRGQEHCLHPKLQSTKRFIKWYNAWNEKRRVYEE
# T5: CXCL13_HUMAN (human, UniProt O43927 23-109)
# T5 sequence: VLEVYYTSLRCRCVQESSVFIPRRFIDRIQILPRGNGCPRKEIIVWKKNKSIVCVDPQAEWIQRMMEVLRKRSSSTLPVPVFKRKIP
# T6: CXCL8_HUMAN (human, UniProt P10145 28-99)
# T6 sequence: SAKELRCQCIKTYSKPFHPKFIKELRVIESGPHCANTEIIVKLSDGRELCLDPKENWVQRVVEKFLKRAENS
# T7: CCL5_HUMAN (human, UniProt P13501 24-91)
# T7 sequence: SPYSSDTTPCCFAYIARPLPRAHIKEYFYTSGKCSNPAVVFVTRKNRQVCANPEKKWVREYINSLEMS
# T8: CXCL1_HUMAN (human, UniProt P09341 35-107)
# T8 sequence: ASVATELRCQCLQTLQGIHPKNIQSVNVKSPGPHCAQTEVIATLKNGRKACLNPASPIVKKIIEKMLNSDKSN
# T9: mouse CXCL2 (mouse, UniProt P10889 28-100)
# T9 sequence: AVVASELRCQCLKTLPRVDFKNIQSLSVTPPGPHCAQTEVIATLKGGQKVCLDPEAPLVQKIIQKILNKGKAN
# T10: mouse CXCL10 (mouse, UniProt P17515 22-98)
# T10 sequence: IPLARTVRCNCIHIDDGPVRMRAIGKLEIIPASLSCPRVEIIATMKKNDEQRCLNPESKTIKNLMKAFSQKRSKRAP
# T11: mouse CXCL1 (mouse, UniProt P12850 25-96)
# T11 sequence: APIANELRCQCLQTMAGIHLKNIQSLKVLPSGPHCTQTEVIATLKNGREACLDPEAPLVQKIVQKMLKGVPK
# T12: CXCL9_HUMAN (human, UniProt Q07325 23-125)
# T12 sequence: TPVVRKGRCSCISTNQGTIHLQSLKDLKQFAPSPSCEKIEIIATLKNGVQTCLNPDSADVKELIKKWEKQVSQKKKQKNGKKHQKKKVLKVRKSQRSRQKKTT
# B1: Evasin-1 peptide variant K92E encoded by EZ406190.1 (other)
# chain: EDDEDYGDLGGCPFLVAENKTGYPTIVACKQDCNGTTETAPNGTRCFSIGDEGLRRMTANLPYDCPLGQCSNGDCIPKETYEVCYRRNWRDEKN
# notes: also called Evasin-1 (EZ406190.1)
# B2: P672:EVA1 (P672_RHIPU (1-44): EVA1_RHISA (29-94)) (designed binder)
# chain: VCEVSEQEGVGEDNATEDEDYEDFFKPVTCYFANSTVGPLRPPNCKQDCNGTTETAPNGTRCFSIGDEGLRRMTANLPYDCPLGQCSNGDCIPKETYEVCYRRNWRDEKN
# B3: P1126_AMBCA (other)
# chain: KPQILQRTDKSTDSEWDPQTCPETCIPSKNITCSDGCVCVKLGEEEEGTCFNMTGVDWLGSPSDD
# B4: P1821 (P1142:G4S:P1156:G4S:P991) (designed binder)
# chain: KPQILQRTDHSTDSDWDPQMCPETCNPSKNISCSSECLCVTLGGGDETGTCFNMSGVDWLGHAQASDGHNDGGGGGSADDDNELFTVQYCGMNCTKDEGGTWTGCTGKKEGCKCYHESGKNYGLCLSTEYTDFSQYGNPSDSEIEAAKPKRSDTLSHGGGGSENGEGTTQPDYDNSTDYYNYEDFKCTCPAPHLNNTNGTVMKPIGCYYTCNVTRCTAPDTYPCYNLTEHQAKNLTTSPTTLCAVGNCDHGICVPNGTKELCFKAPNLEE
# B5: P1820 (P1142:G4S:P1156:G4S:P467) (designed binder)
# chain: KPQILQRTDHSTDSDWDPQMCPETCNPSKNISCSSECLCVTLGGGDETGTCFNMSGVDWLGHAQASDGHNDGGGGGSADDDNELFTVQYCGMNCTKDEGGTWTGCTGKKEGCKCYHESGKNYGLCLSTEYTDFSQYGNPSDSEIEAAKPKRSDTLSHGGGGSAEKSLDSDSSGEDYELWTQGCPFLVAENRTGFGTTVSCQHNCNGAIEKVPEGEPCYTIGEDGLGRMKLNLPYNCSLGECSGGVCVPNGRSDVCFKRTWEENNKAMA
# B6: P1142_AMBCA (other)
# chain: KPQILQRTDHSTDSDWDPQMCPETCNPSKNISCSSECLCVTLGGGDETGTCFNMSGVDWLGHAQASDGHNDG
# Assays:
# CCL8_HUMAN [1] = target: T1, CCL8_HUMAN; experiment: BLI
# CCL8_HUMAN [2] = target: T1, CCL8_HUMAN; experiment: cell-based or functional assay
# CXCL10_HUMAN [3] = target: T2, CXCL10_HUMAN; experiment: yeast surface display FACS re-test; further: test concentration or dose not given here
# CXCL7_HUMAN = target: T3, CXCL7_HUMAN; experiment: yeast surface display FACS re-test; further: test concentration or dose not given here
# CXCL12_HUMAN = CXCL12_HUMAN (human, UniProt P48061 22-89); experiment: BLI
# Sequence of CXCL12_HUMAN (P48061 22-89 limits assumed): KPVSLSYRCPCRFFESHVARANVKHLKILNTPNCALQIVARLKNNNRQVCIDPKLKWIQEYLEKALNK
# CXCL14_HUMAN = target: T4, CXCL14_HUMAN; experiment: BLI
# CXCL13_HUMAN = target: T5, CXCL13_HUMAN; experiment: BLI
# CXCL8_HUMAN [4] = target: T6, CXCL8_HUMAN; experiment: BLI [Cont.]
# CCL5_HUMAN = target: T7, CCL5_HUMAN; experiment: BLI, evasin immobilised
# CXCL10_HUMAN [5] = target: T2, CXCL10_HUMAN; experiment: BLI, evasin immobilised
# CXCL8_HUMAN [6] = target: T6, CXCL8_HUMAN; experiment: BLI, evasin immobilised
# CCL2_HUMAN = CCL2_HUMAN (human, UniProt P13500 24-99); experiment: BLI, evasin immobilised
# Sequence of CCL2_HUMAN (P13500 24-99 limits assumed): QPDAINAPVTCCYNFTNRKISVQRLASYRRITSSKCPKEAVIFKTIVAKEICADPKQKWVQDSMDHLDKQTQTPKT
# CXCL1_HUMAN = target: T8, CXCL1_HUMAN; experiment: BLI, evasin immobilised
# CCL8_HUMAN [7] = target: T1, CCL8_HUMAN; experiment: BLI, evasin immobilised
# mouse CXCL2 = target: T9, mouse CXCL2; experiment: cell-based or functional assay
# mouse CXCL10 = target: T10, mouse CXCL10; experiment: cell-based or functional assay
# mouse CXCL1 = target: T11, mouse CXCL1; experiment: cell-based or functional assay
# CXCL9_HUMAN = target: T12, CXCL9_HUMAN; experiment: BLI
binder,measurement,setting,value
B1,binding result,CCL8_HUMAN [1],no binding (tested: 300 nM)
B2,"IC50, CCL8 induced THP-1 monocyte cell migration",CCL8_HUMAN [2],48 nM
same,Kd,CCL8_HUMAN [1],223 nM
B3,% cells over threshold fluorescence,CXCL10_HUMAN [3],66%
same,% cells over threshold fluorescence,CXCL7_HUMAN,74%
same,binding result,CXCL12_HUMAN,no binding (tested: 300 nM)
same,binding result,CXCL14_HUMAN,no binding (tested: 300 nM)
same,binding result,CXCL13_HUMAN,no binding (tested: 300 nM)
same,binding result,CXCL8_HUMAN [4],no binding (tested: 300 nM)
B4,Kd,CCL5_HUMAN,0.001 nM
same,Kd,CXCL10_HUMAN [5],1.44 nM
same,Kd,CXCL8_HUMAN [6],1.55 nM
same,Kd,CCL2_HUMAN,11.8 nM
same,Kd,CXCL1_HUMAN,1.86 nM
same,Kd,CCL8_HUMAN [7],14.1 nM
B5,Kd,CCL5_HUMAN,0.41 nM
same,Kd,CXCL10_HUMAN [5],1.01 nM
same,Kd,CXCL8_HUMAN [6],1.11 nM
same,Kd,CCL2_HUMAN,2.86 nM
same,Kd,CXCL1_HUMAN,1.12 nM
same,Kd,CCL8_HUMAN [7],18.2 nM
B6,"IC50, mouse bone marrow granulocyte cell migration",mouse CXCL2,0.66 nM
same,"IC50, activated mouse T cell migration",mouse CXCL10,3.37 nM
same,"IC50, mouse bone marrow granulocyte cell migration",mouse CXCL1,2.15 nM
same,% cells over threshold fluorescence,CXCL10_HUMAN [3],80%
same,% cells over threshold fluorescence,CXCL7_HUMAN,71%
same,binding result,CXCL12_HUMAN,no binding (tested: 300 nM)
same,binding result,CXCL14_HUMAN,no binding (tested: 300 nM)
same,binding result,CXCL9_HUMAN,no binding (tested: 300 nM)
same,binding result,CXCL13_HUMAN,no binding (tested: 300 nM)
same,binding result,CXCL8_HUMAN [4],no binding (tested: 300 nM)
